# Biological target: T1, human activated blood coagulation factor X (FXa) (human)
# T1 construct: also called factor Xa; Stuart factor
# Test: SPR; […]; 37°C; HBS (10 mM Hepes, 150 mM NaCl, 5 mM CaCl2, 0.005% P20, pH 7.4); Langmuir fit; […]
# Settings: both partners purified
# T1 sequence (P00742 whole entry): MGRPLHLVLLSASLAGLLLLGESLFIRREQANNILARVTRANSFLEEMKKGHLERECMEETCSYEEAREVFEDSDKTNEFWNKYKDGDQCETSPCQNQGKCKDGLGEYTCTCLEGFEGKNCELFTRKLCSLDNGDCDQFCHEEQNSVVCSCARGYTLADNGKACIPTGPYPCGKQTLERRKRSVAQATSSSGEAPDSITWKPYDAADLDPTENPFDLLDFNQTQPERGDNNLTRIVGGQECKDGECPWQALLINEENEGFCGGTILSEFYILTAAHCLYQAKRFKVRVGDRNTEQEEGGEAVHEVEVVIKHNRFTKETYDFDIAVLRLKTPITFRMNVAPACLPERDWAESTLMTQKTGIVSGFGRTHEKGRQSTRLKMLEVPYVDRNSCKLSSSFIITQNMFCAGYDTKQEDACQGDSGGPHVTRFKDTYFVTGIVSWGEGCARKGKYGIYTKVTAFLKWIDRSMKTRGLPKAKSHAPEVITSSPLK
Binder,Kd,koff,kon
"VRV-PLVIII, the PLA2 from Daboia russelli pulchella venom (enzyme) SLLEFGKMILEETGKLAIPSYSSYGCYCGWGGKGTPKDATDRCCFVHDCCYGNLPDCNPKSDRYKYKRVNGAIVCEKGTSCENRICECDKAAAICFRQNLNTYSKKYMLYPDFLCKGELKC",578 ± 15 nM,0.026 s⁻¹,45000 M⁻¹ s⁻¹
"Vbb, the PLA2 from Vipera berus berus venom (enzyme, γ-carboxyglutamic acid in the Gla domain (residues 1–39)) NLFQFGNMINHMVGKHAVWSYLSYGCYCGWGGQGKPQDATDRCCFVHDCCYGRANGCDPKLSTYSYNFQNGNIVCGNKYGCLRHICECDRVAAICFQKNMNTYNKKYKNYSSSNCQENSDKC",830 ± 15 nM,0.025 s⁻¹,30000 M⁻¹ s⁻¹
